# Data published in patent US20260234254A1 (APTEVO RESEARCH AND DEVELOPMENT, published 2026).
# T1: recombinant monomeric CD123 ectodomain (ECD) with an affinity tag on the C-terminus (UniProt P26951 19-305)
# T1 construct: extracellular domain; also called CD123 ECD; extracellular domain of CD123
# T1 sequence (looked up): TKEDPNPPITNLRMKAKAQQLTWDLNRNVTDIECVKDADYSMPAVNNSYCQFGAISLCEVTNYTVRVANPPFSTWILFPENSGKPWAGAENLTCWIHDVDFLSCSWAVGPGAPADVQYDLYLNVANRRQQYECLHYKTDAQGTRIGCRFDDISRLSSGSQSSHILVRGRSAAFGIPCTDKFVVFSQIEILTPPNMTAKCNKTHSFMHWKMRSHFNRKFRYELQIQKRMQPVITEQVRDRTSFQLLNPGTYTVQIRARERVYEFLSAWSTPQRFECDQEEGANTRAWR
# B1: OMT1 VHVL x TSC456 scFv-Fc-scFv TRI129 (bispecific antibody)
# chain: EVQLLESGGGLVQPGGSLRLSCAASGFTFSSYGMSWVRQAPGKGLEGVSAISGSGGSTYYADSVKGRFTISRDNSKNTLYLQMNSLRAEDTAVYYCAKEKLRYFDWLSDAFDIWGQGTMVTVSSGGGGSGGGGSGGGGSGGGGSDIVMTQSPDSLAVSLGERATINCKSSHSVLYSSNNKNYLAWYQQKPGQPPKLLIYWASTRESGVPDRFSGSGSGTDFTLTISSLQAEDVAVYYCQQYYSTPPTTFGGGTKVEIKSSSEPKSSDKTHTCPPCPAPEAAGAPSVFLFPPKPKDTLMISRTPEVTCVVVDVSHEDPEVKFNWYVDGVEVHNAKTKPREEQYNSTYRVVSVLTVLHQDWLNGKEYKCAVSNKALPAPIEKTISKAKGQPREPQVYTLPPSRDELTKNQVSLTCLVKGFYPSDIAVEWESNGQPENNYKTTPPVLDSDGSFFLYSKLTVDKSRWQQGNVFSCSVMHEALHNHYTQKSLSLSPGSGGGGSGGGGSGGGGSPSQVQLVQSGPEVKKPGSSVKVSCKASGYTFSRSTMHWVRQAPGQGLEWIGYINPSSAYTNYNQKFKDRVTITADKSTSTAYMELSSLRSEDTAVYYCARPQVHYDYNGFPYWGQGTLVTVSSGGGGSGGGGSGGGGSGGGGSDIQMTQSPSTLSASVGDRVTMTCSASSSVSYMNWYQQKPGKAPKRWIYDSSKLASGVPSRFSGSGSGTDYTLTISSLQPDDFATYYCQQWSRNPPTFGGGTKVEIKRS
# notes: Single-chain scFv-Fc-scFv, anti-CD123 (OMT1, VH-VL) x anti-CD3ε (TSC456)
# Biological target: T1, recombinant monomeric CD123 ectodomain …
# Assay: SPR (Biacore T200), bispecific captured by anti-human Fc F(ab')2, CD123 ECD 3-48 nM as analyte, 25 °C, 1:1 model
# Experimental: SPR binding studies of bispecific molecules to recombinant monomeric CD123 ectodomain (ECD) were conducted at 25° C. in HBS-EP+ buffer. […] The bispecific molecules at 200 nM in HBS-EP+ buffer were captured by the immobilized anti-Fc F(ab′)2 fragment at a flow rate of 30 μL/min for 120 sec to reach a stable 2000 RU response. […] Optimal regeneration was achieved by one injection of 10 mM glycine (pH 1.7) at a flow rate of 30 μL/min for 15 sec followed by one injection of 50 mM NaOH at 30 μL/min for 15 sec. A two minute stabilization with HBS-EP+ buffer was completed before the subsequent run.
# Sensorgrams obtained from kinetic SPR measurements were analyzed by the double subtraction method. The signal from the reference flow cell was subtracted from the analyte binding response obtained from flow cells with immobilized or captured ligands. Buffer reference responses were then averaged from multiple injections. […] All sensorgrams were fitted using a simple one-to-one binding model.
binder,measurement,value
B1,Kd,11.4 nM
same,koff,0.00205 s⁻¹
same,kon,179000 M⁻¹ s⁻¹
